# Reference: publication PMC8313361
# Biological target: Recombinant rat SNX27 PDZ domain (residues 38-135) (rat) (UniProt Q8K4V4)
# Assay: ITC
row,Kd [µM],Substance
1,49,"GluN2A C-terminal peptide, S1459A phospho-deficient mutant"
2,14,Phosphorylated GluN2A C-terminal peptide (phospho-Ser-1459)
3,46,"GluN2A C-terminal peptide, wild type"
4,25,"GluN2A C-terminal peptide, S1459E phospho-mimetic mutant"
